Results taken from patent publication US20170233451A1.

Molecular target: human PD-L1 on cells (IFN-gamma-induced SK-MEL-28 melanoma cells; CT26-Tg(hPD-L1)-delta(mPD-L1) cells and tumors) (human) (UniProt Q9NZQ7)
Assay: flow cytometry of a dissociated CT26 hPD-L1 positive tumor four hours after intraperitoneal injection of both labeled agents; same quadrant of the PD-L1 negative tumor: 3.97

Sequence of human PD-L1 on cells (IFN-gamma-induced SK-MEL-28 melanoma cells; CT26-Tg(hPD-L1)-delta(mPD-L1) cells and tumors) (human) (Q9NZQ7 19-290 limits assumed, stated change not applied): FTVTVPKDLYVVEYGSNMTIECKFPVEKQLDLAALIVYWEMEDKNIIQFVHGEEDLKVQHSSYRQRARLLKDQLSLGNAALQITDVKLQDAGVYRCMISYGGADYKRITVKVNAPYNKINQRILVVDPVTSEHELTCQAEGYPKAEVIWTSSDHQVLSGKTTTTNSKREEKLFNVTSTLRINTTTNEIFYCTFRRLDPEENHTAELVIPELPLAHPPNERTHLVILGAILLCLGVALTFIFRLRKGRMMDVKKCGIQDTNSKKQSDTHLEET

AlexaFluor488-labeled anti-PD-L1 antibody (clone 29E.2A3, BioLegend)
% of cells in the quadrant Anti-hPD-L1 488 positive, HAC 594 negative (lower right): 2.22%
